Experiment [1] has as its target T1, CD4 on the surface of human T cells (human, UniProt P01730 26-458).
T1 construct: whole, on cells; also called selection marker CD4
The experiment in a line: affinity column selection of cells from apheresis by the CD4 marker.

The target of experiment [2] is T2, Strep-tactin M2 (streptavidin mutein) immobilised on the chromatography resin (Streptomyces avidinii, UniProt P22629 38-163).
T2 construct: also called immobilized Strep-tactin; STREP-TACTIN-coated resin
The experiment in a line: loading of the tagged Fab on Strep-tactin Sephadex G50, 20 min at 4 C.

B1: anti-CD4 Fab fragment m13B8.2 with Twin Strep-Tag (Fab, V domains shown)
VH: QVQLKQSGPGLVQPSQSLSITCTVSGFSLTTFGVHWVRQSPGKGLEWLGVIWASGITDYNVPFMSRLSITKDNSKSQVFFKLNSLQPDDTAIYYCAKNDPGTGFAYWGQGTLVTVSA
VL: DIQMTQSPASLSASVGETVTFTCRASEMIYSYLAWYQQKQGKSPQLLVHDAKTLAEGVPSRFSGGGSGTQFSLKINTLQPEDFGTYYCQAHYGNPPTFGGGTKLEIKR
For the molecule B1, the binding result in experiment [1] and in experiment [2] was “binds” each time.
